Measurements: patent US20040259198A1, “Purified and isolated mat II beta subunit nucleic acids and polypeptides and therapeutic and screening methods using same” (priority 1999, published 2004)
Read-outs that look alike come from different tables or passages of the source.

Tests used:
[1] = MAT assay of recombinant MAT II β subunit protein alone; format: biochemical
Protocol: MAT activity was assayed as previously described (22,29,31). The assay contained 5-120 μM L-methionine (L-Met), 5 mM ATP in 50 mM TES buffer, pH 7.4,50 mM KCl, 15 mM MgCl2, 0.3 mM EDTA, and 4 mM DTT. The L-Met concentration was varied as indicated in the kinetic analysis. One unit (U) of MAT activity is defined as the amount of enzyme that catalyzes the formation of 1 nmol of AdoMet in 1 hour.

E. coli MAT α protein = E. coli MAT α protein (Escherichia coli, UniProt P0A817); conditions: Ni-NTA agarose, native conditions
Protocol: The MAT II β expression clone, Clone 5, was inoculated into one liter of LB broth containing 25 μg/ml kanamycin and 100 μg/ml ampicillin, then incubated with shaking at 37° C. until an OD600 of 0.5-0.7 was reached. IPTG (Sigma) was added to a final concentration of 1 mM, and the culture was allowed to incubate for an additional 4 hours under the same conditions. […] The first, involved purification of the His-tagged protein under denaturing conditions of 8M urea, and the second involved separation of SDS-PAGE and elution of the β subunit protein from the gel.

MAT II = assay: MAT activity and kinetics in extracts of transfected Cos-1 cells; format: biochemical, African green monkey
Protocol: Transfection of Cos-1 cells with pTargeT™/MAT2A or pTargeT™/MAT2B was done using the cationic lipid reagent, Transfast™ (Promega). Preliminary experiments were carried out to optimize the transfection conditions. Typically, 1.5×10^6 cells were plated in 100 mm dish one day prior to transfection. For each plate, […] of vector DNA was applied in the ratio of 1:1 to Transfast™ in a protein-free medium for 2 h. For cells co-transfected with both α2 and β vectors, […] DNA from each was used. For each experiment, one untransfected plate served as a normal control, and a second plate was transfected with the pTargeT™ vector only (mock-transfected cells). After 48 h, cells were harvested by trypsinization with a solution containing 0.05% trypsin and 0.53 mM EDTA in Hank's balanced salt solution (HBSS, from Cellgro). Trypsinization was stopped by the addition of media supplemented with 10% FCS, cells were pelleted, washed three times in 1 ml HBSS, counted, then resuspended in 1× extraction buffer with protease inhibitors (50 mM Tris, pH 7.4, 100 mM NaCl, 5 mM MgCl2, 4 mM dithiothreitol, 0.1 IU/ml aprotinin, 0.5 mM PMSF and […] soybean trypsin inhibitor). Cells were lysed by three cycles of quick freezing and thawing, and the lysate was clarified by centrifugation at 15,000×g for 10 min at 4° C. If not immediately used; cell extracts were stored at −80° C. Protein assays were performed using the bicinchoninic acid reagent (Sigma) following the manufacturer instructions.
MAT activity in cell extracts was assayed as previously described (Kotb, M., and Kredich, N. M. (1985) J. Biol. Chem. 260, 3923-30). […] The concentration of L-Met was varied between […] using ^14C-L-Met (57.9 mCi/mmol) to a concentration of up to […], and supplementary with cold L-Met for higher concentrations.

Chain of E. coli MAT α protein (Q9NZL9 whole entry): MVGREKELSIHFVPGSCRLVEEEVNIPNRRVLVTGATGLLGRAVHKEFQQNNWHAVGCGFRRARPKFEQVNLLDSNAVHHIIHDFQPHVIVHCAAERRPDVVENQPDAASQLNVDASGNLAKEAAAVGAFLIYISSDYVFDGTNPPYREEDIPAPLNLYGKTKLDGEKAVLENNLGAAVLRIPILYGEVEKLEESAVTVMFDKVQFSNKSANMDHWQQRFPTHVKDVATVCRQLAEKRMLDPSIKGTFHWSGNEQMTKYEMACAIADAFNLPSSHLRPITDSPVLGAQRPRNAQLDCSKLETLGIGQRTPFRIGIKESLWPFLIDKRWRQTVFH
Chain of E. coli MAT α protein (P0A817 2-384): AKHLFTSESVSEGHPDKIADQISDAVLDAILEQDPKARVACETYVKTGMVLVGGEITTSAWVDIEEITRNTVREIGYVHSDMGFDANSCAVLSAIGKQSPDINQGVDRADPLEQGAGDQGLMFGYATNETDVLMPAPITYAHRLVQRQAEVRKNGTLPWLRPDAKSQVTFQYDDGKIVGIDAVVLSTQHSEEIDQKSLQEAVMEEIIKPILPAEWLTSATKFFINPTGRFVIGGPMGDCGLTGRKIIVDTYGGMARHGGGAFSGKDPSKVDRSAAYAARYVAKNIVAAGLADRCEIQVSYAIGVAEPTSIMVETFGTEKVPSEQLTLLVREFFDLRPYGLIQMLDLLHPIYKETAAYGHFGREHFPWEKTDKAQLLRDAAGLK

B1: MAT II β subunit: recombinant regulatory β subunit of human methionine adenosyltransferase II, 334 amino acids, expressed in E. coli or Cos-1 cells (protein, UniProt Q9NZL9 2-334, looked up)
Methionine …: VGREKELSIHFVPGSCRLVEEEVNIPNRRVLVTGATGLLGRAVHKEFQQNNWHAVGCGFRRARPKFEQVNLLDSNAVHHIIHDFQPHVIVHCAAERRPDVVENQPDAASQLNVDASGNLAKEAAAVGAFLIYISSDYVFDGTNPPYREEDIPAPLNLYGKTKLDGEKAVLENNLGAAVLRIPILYGEVEKLEESAVTVMFDKVQFSNKSANMDHWQQRFPTHVKDVATVCRQLAEKRMLDPSIKGTFHWSGNEQMTKYEMACAIADAFNLPSSHLRPITDSPVLGAQRPRNAQLDCSKLETLGIGQRTPFRIGIKESLWPFLIDKRWRQTVFH
With B1 the MAT catalytic activity [1] was “no MAT catalytic activity”, the “association / co-purification with E. coli MAT α” value (E. coli MAT α protein; listed as recombinant MAT II β subunit protein) was “associated spontaneously” and the “association / co-purification with E. coli MAT α” value (E. coli MAT α protein; listed as recombinant human MAT II β subunit protein) was “co-purifying”. The “effect on the Km for L-Met of the endogenous MAT II” value (MAT II; expression in Cos-1 cells) was “no effect”, the “effect on MAT (specific) activity” value (MAT II; expression in Cos-1 cells, result in words) was “increase” and the Km (MAT II; extracts of Cos-1 cells transfected with β or co-transfected with α2 and β, single kinetic form, read-out: Km for L-Met) was 20 µM. For the same molecule, the “increase in MAT activity” value (MAT II; transfected Cos-1 cell extracts compared to untransfected (or mock-transfected) cells) was about 2 fold.
